{"source": "paper PMC3903622", "about": "“Kinetics of Phosphomevalonate Kinase from Saccharomyces cerevisiae” (PLoS ONE, 2014)", "key": {"purified protein [1]": {"substrate": "Nc1ncnc2c1ncn2[C@@H]1O[C@H](COP(=O)(O)OP(=O)(O)OP(=O)(O)O)[C@@H](O)[C@H]1O", "assay": "purified protein", "format": "biochemical, Saccharomyces cerevisiae", "conditions": "co-substrate mevalonate-5-phosphate (0.2–10.0 mM range), 10 mM MgCl2, 100 mM KCl, 200 mM Tris pH 7.2, 30°C"}, "purified protein [2]": {"substrate": "C[C@@](O)(CCOP(=O)(O)O)CC(=O)O", "assay": "purified protein", "format": "biochemical, Saccharomyces cerevisiae", "conditions": "co-substrate ATP (0.1–8.0 mM range), 10 mM MgCl2, 100 mM KCl, 200 mM Tris pH 7.2, 30°C"}}, "data": [{"protein": "phosphomevalonate kinase (PMK) from S. cerevisiae; PMK-His (Saccharomyces cerevisiae S288C) (protein, E. coli codon-optimized gene in pET-52b+, C-terminal 6xHis tag (removal not mentioned), expressed in E. coli BL21(DE3), Ni-NTA purified) MSELRAFSAPGKALLAGGYLVLDTKYEAFVVGLSARMHAVAHPYGSLQGSDKFEVRVKSKQFKDGEWLYHISPKSGFIPVSIGGSKNPFIEKVIANVFSYFKPNMDDYCNRNLFVIDIFSDDAYHSQEDSVTEHRGNRRLSFHSHRIEEVPKTGLGSSAGLVTVLTTALASFFVSDLENNVDKYREVIHNLAQVAHCQAQGKIGSGFDVAAAAYGSIRYRRFPPALISNLPDIGSATYGSKLAHLVDEEDWNITIKSNHLPSGLTLWMGDIKNGSETVKLVQKVKNWYDSHMPESLKIYTELDHANSRFMDGLSKLDRLHETHDDYSDQIFESLERNDCTCQKYPEITEVRDAVATIRRSFRKITKESGADIEPPVQTSLLDDCQTLKGVLTCLIPGAGGYDAIAVITKQDVDLRAQTANDKRFSKVQWLDVTQADWGVRKEKDPETYLDK", "values": [{"measurement": "Km", "setting": "purified protein [1]", "result": 98.3, "unit": "µM"}, {"measurement": "Km", "setting": "purified protein [2]", "result": 885, "unit": "µM"}]}]}
